Results published in the supplement of paper PMC10567573.
± gives the standard deviation.

Test: protein stability index of a GFP-peptide fusion (GPS, HEK-293T) (PSI 1-6); higher = more stable
[1] = treatment: DMSO, c terminus: a fixed tail appended
[2] = treatment: MLN4924 1 uM, 8 h, c terminus: a fixed tail appended
[3] = treatment: DMSO, c terminus: native
[4] = treatment: MLN4924 1 uM, 8 h, c terminus: native
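Further: 24-mer peptide tiles fused after GFP, lentivirally expressed, FACS-sorted into six equal bins by GFP/DsRed ratio, decoded by Illumina sequencing, PSI is the read-weighted mean bin number.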

Sequence	protein stability index [1]	protein stability index [2]	protein stability index [3]	protein stability index [4]
WPKLCPCLRSGIGSSQALGPSPPL [MYCL]	2.46 ± 0.41	2.47 ± 0.14		
HKQLLLFHNAVSAYFAGNQKQLEQ [ARFIP2]	2.19 ± 0.45	2.17 ± 0.18		
IAAGEVIQRPANAIKEMIENCLDA [MLH1]	4.26 ± 0.18	4.3 ± 0.34		
APRTSSCAERLQSEEQVSKNLFGP [FCHO1]	4.21 ± 0.17	4.17 ± 0.31		
GPRRLVSCLSSQSSALSQSGGGST [SPACA3]	3.81 ± 0.22	4 ± 0.19		
KHNHSKSTWLILHHKVYDLTKFLE [CYB5A]	2.6 ± 0.55	2.49 ± 0.41		
HDIIKHPMDLSTVKRKMDGREYPD [BRD3]	5.02 ± 0.19	5.1 ± 0.11		
VQADQERERQRRLEVEREAEKKRE [LRRC59]	5.52 ± 0.093	5.64 ± 0.17		
FQIAANLSMERYALVFGVNTFIAL [SLC19A2]	3.2 ± 0.18	3.09 ± 0.17		
EGNALQGPILQKDYVQLENQWETP [ZNF449]	4.86 ± 0.13	4.68 ± 0.23		
SSAVYFAEADEPTTHFQSIPDAFW [KCNA4]	2.54 ± 0.16	2.67 ± 0.33		
QPLNFVRFYLPLLIHQHEKVIYLD [GLT8D2]	3.02 ± 0.59	3.03 ± 0.69		
FSLKTFKRKSEVERAVKRMRHLST [MATN2]	2.54 ± 0.51	2.82 ± 0.46		
ESLSAIEAELEKVAHQLQALRRG [CHGA]			3.19 ± 0.42	3 ± 0.72
DDSGGPTPSSYAPSHPPRPLLPLD [ZBTB22]	4.54 ± 0.25	4.79 ± 0.22		
LFQVVINPNFEVAESDYSNNIMKC [LOXL2]	2.09 ± 0.28	2.5 ± 0.27		
MEEDKLLSAVPEEGDATRDPGPEP [PSD2]	5.54 ± 0.1	5.52 ± 0.16		
KTAATRYRQKKRAEQEALTGECKE [ATF4]	4.95 ± 0.16	5.1 ± 0.094		
INDEMQAKGIPQRAPPKRKRKRVK [PCMTD1]	5.51 ± 0.23	5.36 ± 0.24		
QPADVFPRLFKEWNITKLSIEYDS [CRY1]	2.7 ± 0.32	2.92 ± 0.3		
VQDMGQEDMLLPLAWRIVNDTYRT [CCNC]	2.37 ± 0.21	2.57 ± 0.43		
MTHQNVELFKELSINVMKQLIGSS [GMCL1]	2.35 ± 0.21	2.37 ± 0.57		
LLLERAAAGSPRSPGPLPGARGLH [ISL2]	2.8 ± 0.15	2.97 ± 0.049		

Sequence	protein stability index [1]	protein stability index [2]	protein stability index [3]	protein stability index [4]
IKKKGWRRSSLVITTKIFWGGKAE [KCNAB2]	2.51 ± 0.55	2.75 ± 0.64		
QPPPPRRVTNVGSLLLTPQENESL [WASL]	4.73 ± 0.083	4.66 ± 0.27		
NSELVQSGKSEISELRRTMQALEI [KRT17]	3.94 ± 0.18	3.94 ± 0.42		
WLVHRDPEGSVSGSQPNSGLALES [NFE2L1]	3.78 ± 0.31	3.97 ± 0.12		
DEIEEVPTTSHRLSRHDKAVQRFC [NETO1]	4.78 ± 0.18	4.68 ± 0.1		
AGLEDEDVIIEVNGVNVLDEPYEK [PDZK1]	5.05 ± 0.35	5 ± 0.27		
ICNNKWFTDTSIILFLNKKDLFEE [GNAI1]	3.06 ± 0.97	2.83 ± 0.45		
LLQSFHGHGADVLCLDLAPSETGN [GNB5]	3.23 ± 0.3	3.39 ± 0.14		
DFIDCVREKGGKVLVHCEAGISRS [DUSP5]	2.77 ± 0.2	2.79 ± 0.41		
VSFEDPEFKSSFSQSFSLYVKYQV [ATE1]	2.99 ± 0.81	2.51 ± 0.61		
QGKADGLYPNPRERSSFYSCAGGR [CHIT1]	3.64 ± 0.097	3.87 ± 0.31		
QQKWTKPARAGSEVEWTEDLALDL [C2CD2L]	4.37 ± 0.27	4.48 ± 0.28		
QYQTVRYDILPLSPVSRNRLAQVK [CTDNEP1]	3.02 ± 0.19	3.04 ± 0.29		
SCTTRLCQEEQLRSHENKLRQLTA [PSD2]	3.6 ± 0.22	3.79 ± 0.33		
NSVSSHASSPYISSVQSYPGSASL [DLX1]	3.65 ± 0.19	3.75 ± 0.23		
DENEDVNFDHFEILRAIGKGSFGK [STK32A]	4.22 ± 0.18	4.14 ± 0.17		
HRDSSQAIPITELTKSQVQDKPYK [ZNF8]	4.96 ± 0.2	5.1 ± 0.3		
TVANDVMLRTGLGVIRMWADEGSR [NETO1]	2.61 ± 0.11	2.77 ± 0.21		
QHNLRYSLENTLTESEARYSSQLS [KRT33B]	4.11 ± 0.27	4.11 ± 0.21		
CAIQMFSFLFLGCSHSFLLAVMGY [OR10K2]	3.41 ± 0.14	3.46 ± 0.37		
KHFCPRAPVILVGCQLDLRYADLE [RHOBTB2]	2.3 ± 0.65	2.52 ± 0.59		
QCANKVLQHMKAVQADQERERQRR [LRRC59]	3.93 ± 0.4	4.17 ± 0.18		
ALTRLERHLERKAWVANFERPRMN [CRY1]	2.42 ± 0.048	2.66 ± 0.6		

Sequence	protein stability index [1]	protein stability index [2]	protein stability index [3]	protein stability index [4]
PALKIYEYHVKPLQTKHLKNNSS [SAMD13]			3 ± 0.15	3.04 ± 0.2
RLAAIAQEKDQEMERLRELQRASI [FBF1]	4.34 ± 0.17	4.43 ± 0.22		
SWEEGMKVFEELLLDADWSINAGS [CRY1]	2.84 ± 0.22	2.89 ± 0.33		
LGANEVLLVVGGFGSQQSPIDVVE [KLHL12]	2.27 ± 0.28	2.25 ± 0.85		
MKEPITKAEILESVIKNYEDHFPL [MAGEA10]	3.98 ± 0.31	3.93 ± 0.38		
RPATEAELLTCHSAEYVGHLRATE [HDAC6]	4.1 ± 0.2	3.85 ± 0.19		
ENRLSVFFSVIFMTVGILSNSLAI [PTGFR]	3.14 ± 0.25	3.36 ± 0.17		
ACPVCSKMVPRYDLNRHLDEMCAN [FAN1]	2.6 ± 0.49	2.27 ± 0.17		
GGGGAPRGRYGPPSRRSENRVVVS [SRSF1]	4.36 ± 0.16	4.29 ± 0.12		
EAVSDSTPFLTNHGAHKAEKKLFE [ZNF263]	4.65 ± 0.5	4.42 ± 0.41		
QKSGLIRHQKIHSGEKPYKCSDCG [ZNF649]	3.63 ± 0.52	4.04 ± 0.29		
ISFGQLSDRFGRKKVYLTGFALDI [SLC22A15]	2.97 ± 0.43	2.73 ± 0.59		
EVRSKAEEVVSFVKKNVLVTGGFF [FUNDC2]	2.17 ± 0.37	2.25 ± 0.34		
LYGGMNYRRLGGGVGVIKMTHCES [KLHL20]	2.3 ± 0.25	2.85 ± 0.66		
HVYIGSAGLDWQSLGQMKELGVIF [PLD5]	2.49 ± 0.71	2.58 ± 1.1		
PSVPCTPAPQVGTQIRTITEEIRD [KRT36]	5.07 ± 0.36	5.22 ± 0.24		
SPPLSTEAHFMLQVADINDNPPTF [PCDHGA10]	3.73 ± 0.17	3.9 ± 0.19		
PDCLRACQEQIEALLESSLRQAQQ [CCND1]	3.23 ± 0.34	3.59 ± 0.38		
AHRIAAQTLLGTAKMLLHEGQHPA [PYCR3]	2.97 ± 0.31	2.95 ± 0.42		
TLEQEQEALVNRLWKRMDKLEAEK [CCDC6]	4.42 ± 0.22	4.52 ± 0.17		
LSPKIMQEAFLVQEVVELPVTERQ [TBC1D10A]	3.98 ± 0.19	3.91 ± 0.39		
CGRRGIKVWSLTGQVAEDRFPESH [TLE6]	2.79 ± 0.27	3.11 ± 0.16		
KAPAKKANSTTTAGRDHFLTCGV [BRD3]			2.5 ± 0.11	2.74 ± 0.26

Sequence	protein stability index [1]	protein stability index [2]	protein stability index [3]	protein stability index [4]
LAVSRPRSSPDDLKALTRNVNRLN [SCARA5]	3.82 ± 0.22	3.84 ± 0.22		
RHCPELAEMSRVSIRILDELVLPF [HNF4A]	2.12 ± 0.13	2.31 ± 0.38		
NLPIIAKMAAVSKASGRFGLLQGT [SEPHS2]	2.31 ± 0.18	2.25 ± 0.2		
RDPAAGAAPFRFVARPVRFPREHQ [ZNF511]	2.61 ± 0.72	3.23 ± 0.68		
QPKEPQLTCDSAQKCHSIGETDEV [ZSCAN9]	5.43 ± 0.22	5.57 ± 0.21		
EDEEEEEGENYQKGERGEDSSEEK [CHGB]	5.622 ± 0.029	5.66 ± 0.21		
TGDGWEFKLADPDEVARRWGKRKN [ETS2]	4.34 ± 0.33	4.34 ± 0.26		
NLEGNELQRHADEFLLDLGHHERS [FUT8]	4.84 ± 0.062	4.83 ± 0.31		
GYQLSDHTVGVLFNNGAHMSLLPD [PLK2]	3.08 ± 0.2	3.14 ± 0.081		
RGEALGLVGAQAPATEEQEAASSS [MAGEA3]	5.61 ± 0.27	5.62 ± 0.1		
EVKIEEPVSMEMDNHMSDKDESCY [INTS3]	5.31 ± 0.37	5.37 ± 0.19		
LFEEPAPQALATRALPCPAHVVFR [FCHSD1]	3.13 ± 0.16	3.21 ± 0.19		
RELLMNHRRGLGVDSKPELQRVLE [FAM107A]	3.95 ± 0.18	4.09 ± 0.14		
DLVKKIRDFHRKILTLPEMMRMFS [TRIM15]	2.45 ± 0.46	2.35 ± 0.19		
EDLEATSEHFKTTSQKVARKFWWK [VAMP8]	4 ± 0.18	3.82 ± 0.25		
VKISDFGLAKCNGLSHSHDLSMDG [RIPK4]	2.95 ± 0.42	3.23 ± 0.37		
MKRQNVRTLSLIVCTFTYLLVGAA [KCNK9]	3.36 ± 0.22	2.95 ± 0.37		
PGPGSGPGSGPGHGSGSHPGPASG [SPAG8]	5.08 ± 0.3	4.97 ± 0.26		
GPGIVGNVLVDPSARIGQNCSIGP [GMPPB]	3.74 ± 0.32	3.81 ± 0.21		
LPGSYLSSECHTSGFVGSGGWFCE [KRT36]	2.15 ± 0.39	2.24 ± 0.26		
